# Data from the Immune Epitope Database (IEDB).
# Columns and labels:
# HLA-A*23:01 = test: IEDB peptide-MHC binding, purified MHC/competitive/radioactivity; filed as Kd, often an IC50 or EC50 that approximates it; ≥ and ≤ were set here for values at or beyond the usual limits of such assays
# HLA-A*01:01 = test: as above
# HLA-A*30:02 = test: as above
# HLA-A*26:01 = test: as above
# HLA-A*29:02 = test: as above
# HLA-A*24:02 = test: as above
# HLA-B*53:01 = test: as above
# HLA-B*44:03 = test: as above
# HLA-B*44:02 = test: as above
# HLA-B*40:01 = test: as above
# HLA-A*31:01 = test: IEDB peptide-MHC binding, purified MHC/direct/fluorescence; filed as Kd, often an IC50 or EC50 that approximates it; ≥ and ≤ were set here for values at or beyond the usual limits of such assays; settings: source organism: Shigella sonnei Ss046
# HLA-A*03:01 = test: as above; settings: source organism: Shigella sonnei Ss046
# [1] = source organism: Mammarenavirus machupoense
# [2] = source organism: SARS coronavirus Tor2
# [3] = source organism: Dengue virus 2 Jamaica/1409/1983
# [4] = source organism: Dengue virus 1 Brazil/97-11/1997
# [5] = source organism: Mammarenavirus juninense
# [6] = source organism: Mammarenavirus guanaritoense
# [7] = source organism: Dengue virus 4 Philippines/H241/1956
# [8] = source organism: Dengue virus 3 Martinique/1243/1999
# [9] = source organism: Triticum aestivum
# [10] = source organism: Lymphocytic choriomeningitis virus (strain Armstrong)
# [11] = source organism: Mammarenavirus lassaense
# [12] = source organism: Lassa virus Josiah
# [13] = source organism: Mammarenavirus brazilense
# [14] = source organism: Dengue virus 1 Singapore/S275/1990
# [15] = source organism: Mammarenavirus choriomeningitidis
sequence,measurement,setting,value
LSSGEPHCA,Kd,HLA-A*23:01; [1],≥ 48000 nM
same,Kd,HLA-A*01:01; [1],4.36 µM
same,Kd,HLA-A*30:02; [1],4600 nM
same,Kd,HLA-A*26:01; [1],≥ 77.9 µM
same,Kd,HLA-A*29:02; [1],≥ 78900 nM
same,Kd,HLA-A*24:02; [1],≥ 77500 nM
LTALRLCAY,Kd,HLA-A*23:01; [2],7110 nM
same,Kd,HLA-A*01:01; [2],0.00786 µM
same,Kd,HLA-A*30:02; [2],54.5 nM
same,Kd,HLA-A*26:01; [2],0.961 µM
same,Kd,HLA-A*29:02; [2],136 nM
same,Kd,HLA-A*24:02; [2],≥ 35300 nM
LTDGEERVIL,Kd,HLA-A*01:01; [3],≥ 23.6 µM
LTLTAAVLML,Kd,HLA-A*01:01; [4],6.16 µM
LWEGSPGKF,Kd,HLA-A*23:01; [4],7640 nM
same,Kd,HLA-A*24:02; [4],6160 nM
LWYAQIQPHW,Kd,HLA-A*23:01; [3],203 nM
same,Kd,HLA-A*24:02; [3],13.1 nM
LYIKDIFTR,Kd,HLA-A*01:01; [5],≥ 78.1 µM
same,Kd,HLA-A*30:02; [5],≥ 76900 nM
same,Kd,HLA-A*26:01; [5],≥ 77.9 µM
LYKLMGHFSW,Kd,HLA-A*23:01; [2],89.6 nM
same,Kd,HLA-A*01:01; [2],18.4 µM
same,Kd,HLA-A*30:02; [2],17100 nM
same,Kd,HLA-A*26:01; [2],≥ 20 µM
same,Kd,HLA-A*29:02; [2],8090 nM
same,Kd,HLA-A*24:02; [2],83.1 nM
MIDKTPVHSW,Kd,HLA-B*53:01; source organism: Dengue virus 4 Thailand/0348/1991,725 nM
MSPALFHAFF,Kd,HLA-A*23:01; [6],148 nM
same,Kd,HLA-A*29:02; [6],513 nM
same,Kd,HLA-A*24:02; [6],122 nM
MWLSYFVASF,Kd,HLA-A*23:01; [2],0.257 nM
same,Kd,HLA-A*01:01; [2],1.14 µM
same,Kd,HLA-A*30:02; [2],2400 nM
same,Kd,HLA-A*26:01; [2],0.142 µM
same,Kd,HLA-A*29:02; [2],38.5 nM
same,Kd,HLA-A*24:02; [2],15.4 nM
NEMGLIEKT,Kd,HLA-B*44:03; [7],2000 nM
PATLFVWYF,Kd,HLA-B*53:01; [4],1890 nM
PVNDLKYSW,Kd,HLA-B*53:01; [7],782 nM
PYLGKREDLW,Kd,HLA-A*23:01; [7],505 nM
same,Kd,HLA-A*24:02; [7],1620 nM
QEKGKSLLF,Kd,HLA-B*44:03; [3],1140 nM
same,Kd,HLA-B*44:02; [3],52.7 nM
QENPYRTWAY,Kd,HLA-B*40:01; [7],1600 nM
same,Kd,HLA-B*44:03; [7],8.86 nM
same,Kd,HLA-B*44:02; [7],7.66 nM
QPSKGWHDW,Kd,HLA-B*53:01; [8],207 nM
QYPLGQGSF,Kd,HLA-A*23:01; [9],8090 nM
same,Kd,HLA-A*01:01; [9],≥ 71 µM
same,Kd,HLA-A*30:02; [9],1460 nM
same,Kd,HLA-A*26:01; [9],≥ 77.9 µM
same,Kd,HLA-A*29:02; [9],≥ 22900 nM
same,Kd,HLA-A*24:02; [9],1450 nM
RPVLFRYTR,Kd,HLA-A*31:01,416 nM
same,Kd,HLA-A*03:01,≥ 20 µM
RYNLDPDTI,Kd,HLA-A*23:01; [6],6790 nM
same,Kd,HLA-A*29:02; [6],≥ 40600 nM
same,Kd,HLA-A*24:02; [6],2970 nM
SLSLISHVV,Kd,HLA-A*23:01; [10],≥ 77700 nM
same,Kd,HLA-A*01:01; [10],≥ 44.7 µM
same,Kd,HLA-A*30:02; [10],1440 nM
same,Kd,HLA-A*26:01; [10],≥ 77.9 µM
same,Kd,HLA-A*29:02; [10],≥ 60400 nM
same,Kd,HLA-A*24:02; [10],≥ 77500 nM
STSQKSIVAY,Kd,HLA-A*23:01; [2],≥ 70000 nM
same,Kd,HLA-A*01:01; [2],0.534 µM
same,Kd,HLA-A*30:02; [2],17.1 nM
same,Kd,HLA-A*26:01; [2],0.79 µM
same,Kd,HLA-A*29:02; [2],44.5 nM
same,Kd,HLA-A*24:02; [2],≥ 70300 nM
STTEAILPEY,Kd,HLA-A*01:01; [8],0.232 µM
same,Kd,HLA-A*30:02; [8],≥ 61200 nM
same,Kd,HLA-A*26:01; [8],0.048 µM
SYLAGAGLAF,Kd,HLA-A*23:01; [4],4.35 nM
same,Kd,HLA-A*24:02; [4],71.5 nM
SYSMCTGKF,Kd,HLA-A*23:01; [3],142 nM
same,Kd,HLA-A*24:02; [3],108 nM
TEKDSPVNI,Kd,HLA-B*44:02; [3],587 nM
TWALCEALTL,Kd,HLA-A*23:01; [3],511 nM
same,Kd,HLA-A*24:02; [3],114 nM
VEIALYQPI,Kd,HLA-A*23:01; [11],1480 nM
same,Kd,HLA-A*01:01; [11],≥ 78.1 µM
same,Kd,HLA-A*30:02; [11],≥ 40100 nM
same,Kd,HLA-A*26:01; [11],≥ 77.9 µM
same,Kd,HLA-A*29:02; [11],≥ 78900 nM
same,Kd,HLA-A*24:02; [11],≥ 38000 nM
VEIWTKEGEK,Kd,HLA-B*40:01; [8],754 nM
VEPWLKNNQF,Kd,HLA-B*40:01; [8],1620 nM
same,Kd,HLA-B*44:03; [8],162 nM
same,Kd,HLA-B*44:02; [8],93.7 nM
VFRTSTPRVV,Kd,HLA-A*23:01; [12],≥ 70000 nM
same,Kd,HLA-A*01:01; [12],≥ 70.4 µM
same,Kd,HLA-A*30:02; [12],6350 nM
same,Kd,HLA-A*26:01; [12],≥ 69.7 µM
same,Kd,HLA-A*29:02; [12],≥ 71400 nM
same,Kd,HLA-A*24:02; [12],≥ 70300 nM
VTDFKGKTV,Kd,HLA-A*01:01; [3],≥ 20.3 µM
VTDVTLLMA,Kd,HLA-A*23:01; [13],18200 nM
same,Kd,HLA-A*01:01; [13],0.0087 µM
same,Kd,HLA-A*30:02; [13],423 nM
same,Kd,HLA-A*26:01; [13],≥ 77.9 µM
same,Kd,HLA-A*29:02; [13],≥ 23400 nM
same,Kd,HLA-A*24:02; [13],≥ 77500 nM
VYPLSIPATL,Kd,HLA-A*23:01; [14],15.3 nM
same,Kd,HLA-A*24:02; [14],111 nM
WCSQTNYQY,Kd,HLA-A*23:01; [15],≥ 77700 nM
same,Kd,HLA-A*01:01; [15],0.964 µM
same,Kd,HLA-A*30:02; [15],734 nM
same,Kd,HLA-A*26:01; [15],≥ 77.9 µM
same,Kd,HLA-A*29:02; [15],204 nM
same,Kd,HLA-A*24:02; [15],≥ 77500 nM
WEPSKGWKNW,Kd,HLA-B*44:02; [7],150 nM
